T1: hiR2-FL-I566E-T7 (human iRhom2 full length I566E, 3 x T7 tag) (human, UniProt Q6PJF5 1-856)
T1 sequence: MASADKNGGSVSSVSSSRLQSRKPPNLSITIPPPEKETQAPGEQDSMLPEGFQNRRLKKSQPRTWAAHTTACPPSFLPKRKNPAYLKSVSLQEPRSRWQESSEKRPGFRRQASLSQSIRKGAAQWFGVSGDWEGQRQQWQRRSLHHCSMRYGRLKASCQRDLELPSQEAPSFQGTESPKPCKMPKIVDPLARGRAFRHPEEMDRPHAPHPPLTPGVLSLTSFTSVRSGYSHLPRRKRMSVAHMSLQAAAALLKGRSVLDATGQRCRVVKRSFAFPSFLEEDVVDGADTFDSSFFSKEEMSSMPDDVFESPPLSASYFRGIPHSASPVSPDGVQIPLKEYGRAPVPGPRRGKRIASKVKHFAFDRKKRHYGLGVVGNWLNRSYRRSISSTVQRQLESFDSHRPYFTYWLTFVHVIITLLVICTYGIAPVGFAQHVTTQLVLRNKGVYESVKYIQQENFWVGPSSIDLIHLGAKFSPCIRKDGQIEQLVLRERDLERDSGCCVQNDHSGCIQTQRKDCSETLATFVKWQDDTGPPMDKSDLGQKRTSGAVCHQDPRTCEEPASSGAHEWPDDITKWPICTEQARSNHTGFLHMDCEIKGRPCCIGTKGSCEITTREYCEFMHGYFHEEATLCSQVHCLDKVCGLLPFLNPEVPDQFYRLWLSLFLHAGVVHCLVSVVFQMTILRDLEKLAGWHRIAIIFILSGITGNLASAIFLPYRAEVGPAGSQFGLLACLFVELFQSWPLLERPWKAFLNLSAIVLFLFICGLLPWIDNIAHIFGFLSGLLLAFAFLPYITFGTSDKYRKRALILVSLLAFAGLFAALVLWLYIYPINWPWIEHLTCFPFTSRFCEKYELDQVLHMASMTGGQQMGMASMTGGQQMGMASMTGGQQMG


Molecular target: T1, hiR2-FL-I566E-T7 (human iRhom2 full …)
Test: FACS on cells of the row I566E, vs human iR2 wild type = 100%
Source text: In brief, immortalized MEF-DKO hiR2-FL-G563D-T7, MEF-DKO hiR2-FL-A564P-T7, MEF-DKO hiR2-FL-I566E-T7, MEF-DKO hiR2-FL-D569E-T7, MEF-DKO hiR2-FL-E579K-T7, MEF-DKO hiR2-FL-Q580N-T7, MEF-DKO hiR2-FL-A581S-T7, MEF-DKO hiR2-FL-R582A-T7, MEF-DKO hiR2-FL-S583G-T7, MEF-DKO hiR2-FL-G587N-T7, MEF-DKO hiR2-FL-F588H-T7, MEF-DKO hiR2-FL-L589P-T7, MEF-DKO hiR2-FL-E594V-T7, MEF-DKO hiR2-FL-K596T-T7, MEF-DKO hiR2-FL-S607R-T7, MEF-DKO hiR2-FL-T612S-T7, MEF-DKO hiR2-FL-E617D-T7, MEF-DKO hiR2-FL-H620R-T7, MEF-DKO hiR2-FL-L636M-T7, MEF-DKO hiR2-FL-K638D-T7, MEF-DKO hiR2-FL-I771F-T7, MEF-DKO hiR2-FL-I825V-T7, MEF-DKO hiR2-FL-I828V-T7, MEF-DKO hiR2-FL-N829R-T7, MEF-DKO hiR2-FL-W830C-T7, MEF-DKO hiR2-FL-P831E-T7, MEF-DKO hiR2-FL-1833C-T7, MEF-DKO hiR2-FL-H835F-T7, MEF-DKO hiR2-FL-F839I-T7, MEF-DKO hiR2-FL-S843D-T7, MEF-DKO hiR2-FL-Q853A-T7, MEF-DKO hiR2-FL-V854Q-T7 and MEF-DKO hiR2-FL-R844K-T7 cells were harvested with 10 mM EDTA in PBS, washed and resuspended in FACS buffer (PBS, 3% FBS, 0.05% sodium azide), and seeded in Nunc U-bottom 96-well plates (Thermo Fisher Scientific, USA) at approximately 1×10⁵ cells per well. To pellet cells and remove supernatants, the plates were centrifuged at 1,500 rpm and 4° C. for 3 minutes. For primary staining, cells were resuspended in 100 μl per well of either FACS buffer alone (controls) or the purified antibodies 3, 5, 16, 22, 34, 42, 43, 44, 48, and 50 of the present disclosure at 3 μg/ml in FACS buffer and incubated on ice for 1 hour. Afterwards, plates were centrifuged at 1,500 rpm and 4° C. for 3 minutes and washed twice with 200 μl per well of FACS buffer. For secondary staining, cells were spun down and resuspended in 100 μl per well of PE-conjugated goat anti-mouse IgG F(ab′)2 detection fragment (Dianova, Germany) diluted 1:100 in FACS buffer. Protected from light, the cell suspensions were incubated on ice for 1 hour. Plates were then centrifuged at 1,500 rpm and 4° C. for 3 minutes and washed three times with 200 μl per well of FACS buffer. Finally, cells were resuspended in 150 μl per well of FACS buffer and analyzed using a BD Accuri™ C6 Plus flow cytometer (Becton Dickinson, Germany).

Row | Binder | grade of loss of binding vs wild type
1 | antibody 43 (antibody, V domains shown, Mouse IgG, kappa light chain; also called clone #43) VH: QVALKESGPGILQPSQTLSLTCSFSGFSLSTFGMGVGWIRQSSGKGLEWLANIWWDDDKYYNPALKSRLTISKDASKNQAFLKIANVDTADTATYYCARIGNYGSNYWYFDVWGTGTTVTVSS VL: QIVLTQSPAIMSASPGERVTMTCSANSRISYMYWYQQKPGSSPRLLIYDTSNLASGVPVRFSGSGSGTSYSLTISRMEAEDAATYNCQQWSSYPLTFGAGTKLELK | 2 grade (2 => 60% loss of binding vs wild type)
2 | antibody 44 (antibody, V domains shown, Mouse IgG, kappa light chain; also called clone #44; m44) VH: QVTLKESGPGILQPSQTLSLTCSFSGFSLSTFGMGVGWIRQPSEKGLEWLAHIWWDDDKYYNPALKSRLTISKDTSKNQIFLKITNVDTAETATYYCSRIGNYGSNYWYFDVWGTGTTVTVSS VL: QIVLTQSPAVMSASPGEKVTMTCTASSSVYYMYWYQQTPGSSPRLLIYDTSNLASGVPVRFSGSGSGTSYSLTISRMEAEDAATYYCQQWNTYPLTFGAGTKLELK | 2 grade (2 => 60% loss of binding vs wild type)
3 | antibody 22 (antibody, V domains shown, Mouse IgG, kappa light chain; also called clone #22; m22) VH: QVTLKESGPGILQPSQTLSLTCSFSGFSLSTFGMGVGWIRQPSGKGLEWLAHIWWDDEKYYNSALKSRLTISKATSKNQVFLKIANVDTADTATYYCARISNYGSNYWYFNVWGTGTTVTVSS VL: QVVLTQSPALMSASPGEKVTMTCSAGSSVSYMYWYQQKPGSSPRVLIYDTSNLASGVPARFTGSGSGTSYSLTISRMEAEDAATYYCQQWNSYPLTFGAGTKLELK | 2 grade (2 => 60% loss of binding vs wild type)
4 | antibody 42 (antibody, V domains shown, Mouse IgG, kappa light chain; also called clone #42; m42) VH: QVTLKESGPGILQPSQTLSLTCSLSGFSLSTFGRGVGWIRQPSGKGLEWLAHIWWDDEKYYNPALKSRLTISKDTSKNQVFLRIANVDTADTATYYCARIQNYGSNYWYFDVWGTGTTVTVSS VL: LIVLTQSPAIMSASPGEKVTMTCGATSRISYMFWYQQKPGSSPRVLIYDTSNLASGVPVRFSGSGSGTSYSLTISRVEAEDVATYYCQQWNSYPLTFGAGTKLELK | 2 grade (2 => 60% loss of binding vs wild type)
5 | antibody 34 (antibody, V domains shown, Mouse IgG, kappa light chain; also called clone #34; m34) VH: QVTLKESGPGILQPSQTLSLTCSFSGFSLSTFSLGVGWIRQSSGKGLEWLAHIWWDDEKYYNPALKSRLTISKDTSKNQVFLKIANVDAADTATYYCARAYYSKSYYALDYWGQGTSVTVSS VL: DIQMTQSPSSLSASLGERVSLTCRASQEISGYLSWLQQKPDGTIKRLIYAASTLDSGVPKRFSGSRSGSDYSLAISSLESEDFADYYCLQYANFPFTFGSGTKLEIK | 2 grade (2 => 60% loss of binding vs wild type)
